{"source": "paper PMC7946940", "key": {"[1]": {"molecular_target": "Rab5a(1–212)-Q79L-C19S-C63S (human) (UniProt P20339)", "sequence (P20339 1-212 C19S/C63S/Q79L)": "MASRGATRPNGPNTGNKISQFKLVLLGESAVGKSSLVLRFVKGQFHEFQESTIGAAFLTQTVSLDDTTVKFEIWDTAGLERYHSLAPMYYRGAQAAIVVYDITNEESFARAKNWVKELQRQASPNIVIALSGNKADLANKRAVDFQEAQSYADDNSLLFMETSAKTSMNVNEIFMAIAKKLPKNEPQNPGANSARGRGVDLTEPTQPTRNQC"}, "[2]": {"molecular_target": "Rab1a(1–204)-Q70L-C26S-C126S (human) (UniProt P62820)", "sequence (P62820 1-204 C26S/Q70L/C126S)": "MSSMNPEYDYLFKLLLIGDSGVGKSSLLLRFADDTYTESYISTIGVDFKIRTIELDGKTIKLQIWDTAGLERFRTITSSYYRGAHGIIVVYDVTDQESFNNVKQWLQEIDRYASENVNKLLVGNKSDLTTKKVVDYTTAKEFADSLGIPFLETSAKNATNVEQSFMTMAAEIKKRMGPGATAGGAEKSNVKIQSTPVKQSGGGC"}}, "data": [{"substance": "complex II REIE > AAAA (VPS34 199-REIE-202 to alanine/VPS15/Beclin 1/UVRAG) (from UniProt Q8NEB9 1-887; Q99570 1-1358; Q14457 1-450; Q9P2Y5 1-699)", "values": [{"measurement": "GUV-based lipid kinase activity, activation of complex II REIE > AAAA by Rab5a–GTP against wild-type complex II", "setting": "[1]", "result": 4, "unit": "fold"}]}, {"substance": "human VPS34 complex I (VPS34/VPS15/Beclin 1/ATG14L) (from UniProt Q8NEB9 1-887; Q99570 1-1358; Q14457 1-450; Q6ZNE5 1-492)", "values": [{"measurement": "GUV-based lipid kinase activity of complex I, fold activation by Rab1a–GDP on the GUVs", "setting": "[2]", "result": 3, "unit": "fold"}, {"measurement": "GUV-based lipid kinase activity of complex I, fold activation by Rab1a–GTP on the GUVs", "setting": "[2]", "result": 11, "unit": "fold"}]}]}
